Key:
[1] = biological target: mumps postfusion F glycoprotein trimer (unstabilized 476-GCN4) (mumps virus); experiment: negative-stain EM; purified glycoprotein designs alone, 2D class averages
[2] = biological target: prefusion-stabilized mumps fusion (F) glycoprotein trimer, genotype G (V206C-A223C with 476-GCN4 and 101KRF-101GGG) (mumps virus, genotype G); experiment: crystal structure
[3] = biological target: prefusion-stabilized mumps fusion (F) glycoprotein trimer, genotype G (V206C-A223C with 476-GCN4 and 101KRF-101GGG) (mumps virus, genotype G); experiment: negative-stain EM; purified glycoprotein designs alone, 2D class averages

Substance: mumps postfusion F glycoprotein trimer (unstabilized 476-GCN4)
- stoichiometry N [1]: 3

Substance: prefusion-stabilized mumps fusion (F) glycoprotein trimer, genotype G (V206C-A223C with 476-GCN4 and 101KRF-101GGG)
- stoichiometry N [2]: 3
- stoichiometry N [3]: 3

Source: publication PMC11588112
